According to PMC4960638, “Changes in the folding landscape of the WW domain provide a molecular mechanism for an inherited genetic syndrome” (Scientific Reports, 2016):
Bridges are numbered along the chain shown (N, C = ends). Where no end group is shown, it is not given here.

Biological target: the molecule itself
Test: SEC; size exclusion chromatography in the purification of the WW domain; column and buffer not shown (SI)

B1: WW domain of polyglutamine tract-binding protein 1 (PQBP1), Y65C mutant, 37 amino acid construct (domain or fragment, human, UniProt O60828 47-83, looked up)
chain: GLPPSWYKVFDPSCGLPYCWNADTDLVSWLSPHDPNS
modifications: disulfide 14-19 (inferred); not fully specified
notes: the mutation causes Golabi-Ito-Hall syndrome; also called Y65C WW domain; WW Y65C; source: purified by size exclusion chromatography
stoichiometry N: 2
